The results in this text go back to patent US20110044996A1 (published 2011).

B1: murine monoclonal antibody 4K21-O11-E14 (antibody, V domains shown)
VH: EVQLVESGGGLVKSGGSLKLSCAASGFAFSAYDMSWVRQTPEKRLELVAYISSGGSSFYYPDTVKGRFTISRDNAKNTLYLQMSSLKSEDTAMYYCTRHLGFDYWGQGTTLTVSS
VL: DVVMTQTPLSLPVSLGDQASISCRSSQSLVNSNGNTYLHWFLQKPGQSPKLLIYKVSNRFSGVPDRFSGSGSGTDFTLKISRVEAEDLGVYFCSQSTHVPPTFGGGTKLEIK
notes: Murine hybridoma antibody (ECACC 07051601); also called 4K21-O11-E14 (mouse); mAb 4K21
B2: hGM4/11 (antibody, V domains shown)
VH: QVQLQESGGGLVKPGGSLKLSCAASGFAFSAYDMSWVRQTPDKRLEWVAYISSGGSSFYYPDTVKGRFTISRDNAKNTLYLQMSSLKSEDTAMYYCARHLGFDYWGQGTMVTVSS
VL: DVVMTQSPLSLPVTPGEPASISCRSSQSLVNSNGNTYLHWYLQKPGQSPQLLIYKVSNRFSGVPDRFSGSGSGTDFTLKISRVEAEDVGVYYCSQSTHVPPTFGGGTKVEIK
B3: hGM4/22 (antibody, V domains shown)
VH: QVQLQESGGGLVKPGGSLKLSCAASGFAFSAYDMSWVRQTPDKRLEWVAYISSGGSSFYYPDTVKGRFTISRDNAKNTLYLQMSSLKSEDTAMYYCTRHLGFDYWGQGTMVTVSS
VL: DVVMTQSPLSLPVTPGEPASISCRSSQSLVNSNGNTYLHWYLQKPGQSPQLLIYKVSNRFSGVPDRFSGSGSGTDFTLKISRVEAEDVGVYYCSQSTHVPPTFGGGTKVEIK
B4: hGM4/21 (antibody, V domains shown)
VH: QVQLQESGGGLVKPGGSLKLSCAASGFAFSAYDMSWVRQTPDKRLELVAYISSGGSSFYYPDTVKGRFTISRDNAKNTLYLQMSSLKSEDTAMYYCARHLGFDYWGQGTMVTVSS
VL: DVVMTQSPLSLPVTPGEPASISCRSSQSLVNSNGNTYLHWYLQKPGQSPQLLIYKVSNRFSGVPDRFSGSGSGTDFTLKISRVEAEDVGVYYCSQSTHVPPTFGGGTKVEIK
B5: hGM4/34 (antibody, V domains shown)
VH: QVQLQESGGGLVKPGGSLKLSCAASGFAFSAYDMSWVRQTPDKRLELVAYISSGGSSFYYPDTVKGRFTISRDNAKNTLYLQMSSLKSEDTAMYYCTRHLGFDYWGQGTMVTVSS
VL: DVVMTQSPLSLPVTPGEPASISCRSSQSLVNSNGNTYLHWYLQKPGQSPQLLIYKVSNRFSGVPDRFSGSGSGTDFTLKISRVEAEDVGVYYCSQSTHVPPTFGGGTKVEIK
B6: hGM4/12 (antibody, V domains shown)
VH: EVQLVESGGGLVQPGGSLRLSCAASGFAFSAYDMSWVRQAPGKGLEWVSYISSGGSSFYYPDTVKGRFTISRDNAKNSLYLQMNSLRAEDTAVYYCARHLGFDYWGQGTLVTVSS
VL: DVVMTQSPLSLPVTPGEPASISCRSSQSLVNSNGNTYLHWYLQKPGQSPQLLIYKVSNRFSGVPDRFSGSGSGTDFTLKISRVEAEDVGVYYCSQSTHVPPTFGGGTKVEIK
notes: Heavy h4/20 with human gamma 1 constant (hG1), light h4c with human kappa constant (hKa); also called h4K21-12
B7: hGM4/13 (antibody, V domains shown)
VH: EVQLVESGGGLVQPGGSLRLSCSASGFAFSAYDMSWVRQAPGKGLEWVAYISSGGSSFYYPDTVKGRFTISRDNAKNSLFLQMSSLRAEDTAVYYCARHLGFDYWGQGTTVTVSS
VL: DVVMTQSPLSLPVTPGEPASISCRSSQSLVNSNGNTYLHWYLQKPGQSPQLLIYKVSNRFSGVPDRFSGSGSGTDFTLKISRVEAEDVGVYYCSQSTHVPPTFGGGTKVEIK
notes: Heavy h4/30 with human gamma 1 constant (hG1), light h4c with human kappa constant (hKa); also called h4K21-13
B8: hGM4/14 (antibody, V domains shown)
VH: EVQLVESGGGLVQPGGFLRLSCAASGFAFSAYDMSWVRQAPGKGLVWVSYISSGGSSFYYPDTVKGRFTISRDNAKNTLYLQMNSLRAEDTAMYYCTFHLGFDYWGQGTTVTVSS
VL: DVVMTQSPLSLPVTPGEPASISCRSSQSLVNSNGNTYLHWYLQKPGQSPQLLIYKVSNRFSGVPDRFSGSGSGTDFTLKISRVEAEDVGVYYCSQSTHVPPTFGGGTKVEIK
notes: also called h4K21-14; humanised 4K21-14
B9: hGM4/15 (antibody, V domains shown)
VH: EVQLVESGGGLVKSGGSLTLSCAASGFAFSAYDMSWIRQAPGKGLEWVSYISSGGSSFYYPDTVKGRFTISRDNAKNSLYLQMNSLKDEDTAVYYCARHLGFDYWGQGTLVTVSS
VL: DVVMTQSPLSLPVTPGEPASISCRSSQSLVNSNGNTYLHWYLQKPGQSPQLLIYKVSNRFSGVPDRFSGSGSGTDFTLKISRVEAEDVGVYYCSQSTHVPPTFGGGTKVEIK
notes: Heavy h4/50 with human gamma 1 constant (hG1), light h4c with human kappa constant (hKa); also called h4K21-15
B10: hGM4/2 (antibody, V domains shown)
VH: EVQLVESGGGLVQPGGSLRLSCAASGFAFSAYDMSWVRQAPGKGLEWVSYISSGGSSFYYPDTVKGRFTISRDNAKNSLYLQMNSLRAEDTAVYYCARHLGFDYWGQGTLVTVSS
VL: DVVMTQSPLSLPVTLGQPASISCRSSQSLVNSNGNTYLHWFQQRPGQSPRRLIYKVSNRFSGVPDRFSGSGSGTDFTLKISRVEAEDVGVYYCSQSTHVPPTFGGGTKVEIK
notes: Heavy h4/20 with human gamma 1 constant (hG1), light h4a with human kappa constant (hKa); also called h4K21-2
B11: hGM4/3 (antibody, V domains shown)
VH: EVQLVESGGGLVQPGGSLRLSCSASGFAFSAYDMSWVRQAPGKGLEWVAYISSGGSSFYYPDTVKGRFTISRDNAKNSLFLQMSSLRAEDTAVYYCARHLGFDYWGQGTTVTVSS
VL: DVVMTQSPLSLPVTLGQPASISCRSSQSLVNSNGNTYLHWFQQRPGQSPRRLIYKVSNRFSGVPDRFSGSGSGTDFTLKISRVEAEDVGVYYCSQSTHVPPTFGGGTKVEIK
notes: Heavy h4/30 with human gamma 1 constant (hG1), light h4a with human kappa constant (hKa); also called h4K21-3; 4K21-3
B12: hGM4/5 (antibody, V domains shown)
VH: EVQLVESGGGLVKSGGSLTLSCAASGFAFSAYDMSWIRQAPGKGLEWVSYISSGGSSFYYPDTVKGRFTISRDNAKNSLYLQMNSLKDEDTAVYYCARHLGFDYWGQGTLVTVSS
VL: DVVMTQSPLSLPVTLGQPASISCRSSQSLVNSNGNTYLHWFQQRPGQSPRRLIYKVSNRFSGVPDRFSGSGSGTDFTLKISRVEAEDVGVYYCSQSTHVPPTFGGGTKVEIK
notes: Heavy h4/50 with human gamma 1 constant (hG1), light h4a with human kappa constant (hKa); also called h4K21-5
B13: hGM4/6 (antibody, V domains shown)
VH: QVQLQESGGGLVKPGGSLKLSCAASGFAFSAYDMSWVRQTPDKRLEWVAYISSGGSSFYYPDTVKGRFTISRDNAKNTLYLQMSSLKSEDTAMYYCARHLGFDYWGQGTMVTVSS
VL: DVVMTQSPLSLPVTLGQPASISCRSSQSLVNSNGNTYLHWFQQRPGQSPRRLIYKVSNRFSGVPDRFSGSGSGTDFTLKISRVEAEDVGVYYCSQSTHVPPTFGQGTKLEIK
notes: Heavy h4/10 with human gamma 1 constant (hG1), light h4b with human kappa constant (hKa); also called h4K21-6
B14: hGM4/1 (antibody, V domains shown)
VH: QVQLQESGGGLVKPGGSLKLSCAASGFAFSAYDMSWVRQTPDKRLEWVAYISSGGSSFYYPDTVKGRFTISRDNAKNTLYLQMSSLKSEDTAMYYCARHLGFDYWGQGTMVTVSS
VL: DVVMTQSPLSLPVTLGQPASISCRSSQSLVNSNGNTYLHWFQQRPGQSPRRLIYKVSNRFSGVPDRFSGSGSGTDFTLKISRVEAEDVGVYYCSQSTHVPPTFGGGTKVEIK
notes: Heavy h4/10 with human gamma 1 constant (hG1), light h4a with human kappa constant (hKa); also called h4K21-1; 4K21-1

T1 sequence (P04141 18-144 limits assumed): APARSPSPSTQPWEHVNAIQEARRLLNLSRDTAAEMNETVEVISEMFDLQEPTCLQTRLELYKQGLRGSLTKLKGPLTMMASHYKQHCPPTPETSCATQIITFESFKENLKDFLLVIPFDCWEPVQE

The first experiment has as its target T1, recombinant human GM-CSF (Peprotech) (human, UniProt P04141 18-144). Nature of the experiment: cell-based or functional assay.
For B1, the “EC50, TF-1 cell growth (3H-thymidine) with GM-CSF” value is 0.311 nM.
Regarding B2, the “EC50, TF-1 cell growth (3H-thymidine) with GM-CSF” value amounted to 5.13 nM.
Same read-out and setting: the figure for B3 is 2.12 nM; for B4 it is 1.19 nM.
Still for that read-out and setting: the figure for B5 is 0.22 nM.

The target in the next experiment is T1, recombinant human GM-CSF (Peprotech). Description: SPR (BIAcore); recombinant human GM-CSF coated on CM5 chip, antibody injected at 66.7-4.17 nM. How it is done:
The binding kinetics of the 4K21 monoclonal antibody was determined using a Biacore and compared with the binding kinetics for a commercially available rat anti-human GM-CSF antibody from BD Biosciences (BD; Cat No. 554501) (see Table 1 below). Recombinant human GM-CSF was coated onto a CM5 chip to determine the binding kinetics of the 4K21 antibody. An uncoated flow cell was used as a reference. The antibody, prepared in HBS-EP at concentrations of 66.7 nM to 4.17 nM with 2-fold serial dilution, was injected for 2 minutes with a stabilisation time of 10 minutes and dissociation time of 15 minutes. The BIACore kinetic analysis wizard was run to determine each antibody's association (ka [1/Ms]), dissociation (kd[1/s]) and affinity (KD [nM]) to GM-CSF.
(SPR reads the build-up and loss of mass on a sensor chip optically.)
As usually defined, the Kd is the equilibrium constant for the complex coming apart. A word on the koff: it is a measure of how fast the partners let go of each other. Usually kon stands for a measure of how fast the partners come together. For the molecule “commercially available rat anti-human GM-CSF antibody from BD Biosciences (Cat No. 554501)”, the Ka was more than 5.2e+09 M⁻¹, the Kd was less than 0.19 nM, the dissociation rate constant (koff) was less than 1e-05 s⁻¹ and the association rate constant (kon) is 52000 M⁻¹ s⁻¹.
Consider B1, for which the Ka is more than 5.9e+09 M⁻¹, the Kd was less than 0.17 nM, the koff is less than 1e-05 s⁻¹ and the kon was determined as 59000 M⁻¹ s⁻¹.

Another experiment shares this target. Description: BIAcore, recombinant human GM-CSF amine-coupled to a CM5 chip, antibody at 1 ug/ml injected for 3 min. How it is done:
The binding affinity of the humanized antibodies was determined by BIACore analysis. Recombinant GM-CSF (Peprotech) at 100 μg/ml was prepared in sodium acetate, pH5, and immobilised to a CM5 sensor chip by amine coupling. Approximately 1200RU bound to the chip. The first experiment was to determine the binding activity of 15 humanized antibodies. These antibodies were prepared in HBS-EP at 1 μg/ml, injected for 3 minutes and compared to murine 4K21 and a commercially available anti GM-CSF antibody (BD).
Turning to B6, the binding result is reported as “binds”.
On the same count and under the same terms, the entry for B7 is “binds”; for B8 it is “no binding (tested: 1 ug/ml)”.
The same measure, in the same setting: the entry for B9 is “binds”.

The target is the same in a further experiment. Nature of the experiment: SPR (BIAcore); recombinant human GM-CSF coupled to CM5 chip, antibody injected at 66.7-4.17 nM. Here is the method: A second experiment was performed to determine the kinetics with which these antibodies bind to human GM-CSF. A range of antibody concentration was prepared in HBS-EP from 66.7 nM to 4.17 nM with 2-fold serial dilution. Again direct binding was quantitated using recombinant GM-CSF coupled to a CM5 chip—an uncoated flow cell was used as a reference. The antibody at each concentration was injected for 2 minutes with a stabilisation time of 10 minutes and dissociation time of 15 minutes. The BIACore kinetic analysis wizard was run to determine each antibody's association (ka [1/Ms]), dissociation (kd[1/s]) and affinity (KD [nM]) to GM-CSF.
For “commercially available rat anti-human GM-CSF antibody from BD Biosciences (Cat No. 554501)”, the Ka was more than 5.2e+09 M⁻¹, the dissociation constant (Kd) was less than 0.19 nM, the koff was less than 1e-05 s⁻¹ and the association rate constant (kon) was 52000 M⁻¹ s⁻¹.
Consider B10, for which the Ka turned out to be 3.5e+09 M⁻¹, the Kd is 0.29 nM, the koff came to 4.7e-05 s⁻¹ and the kon stood at 160000 M⁻¹ s⁻¹.
With B11, the Ka came out at 7.1e+09 M⁻¹, the dissociation constant (Kd) was found to be 0.14 nM, the koff was determined as 3e-05 s⁻¹ and the kon was 210000 M⁻¹ s⁻¹.
For B12, the Ka is 7.6e+09 M⁻¹, the dissociation constant Kd was 0.13 nM, the off-rate constant (koff) was found to be 1.9e-05 s⁻¹ and the kon turned out to be 140000 M⁻¹ s⁻¹.
For B1 the same measures were more than 5.9e+09 M⁻¹, less than 0.17 nM, less than 1e-05 s⁻¹ and 59000 M⁻¹ s⁻¹.
As to B13, the Ka came to 1.2e+10 M⁻¹, the Kd was determined as 0.081 nM, the off-rate (koff) was found to be 1.6e-05 s⁻¹ and the kon was 200000 M⁻¹ s⁻¹.
For the molecule B14, the Ka came to 7.7e+09 M⁻¹, the Kd was found to be 0.13 nM, the koff amounted to 3.8e-05 s⁻¹ and the kon came to 290000 M⁻¹ s⁻¹.
